The source of these data is publication PMC7797080 (Nucleic Acids Research, 2020).

This series deals with the molecule itself. Description: SEC.

B1: PSEUDOURIDINE KINASE from Arabidopsis (AtPUKI), native, tag-free (enzyme, Arabidopsis thaliana)
chain: GGGSMEPVIIGALILDVHAKPSTTPISGTTVPGQVLFAPGGVARNVADCIFKLGITPFMIGTLGLDGPANVLLKEWKLSMKGILRREDISTPIVSLVYDTNGEVAAGVAGVDAVENFLTPEWIQRFEYNISSARLLMVDANLSSLALEASCKLAAESSVPVWFEPVSVTKSQRIASIAKYVTIVSPNQDELIAMANALCAKNLFHPFRSDENKLSIEDMFRALKPAILVLLKNGVKVVIVTLGSNGALLCSKGNPKKALNIDRKFLRSGEVFKRVQSVCSPNRFSELGSNRSPSLFAMHFPTIPAKVKKLTGAGDCLVGGTVASLSDGLDLIQSLAVGIASAKAAVESDDNVPPEFKLDLISGDAELVYNGAKMLMVHQSML
By stoichiometry N is commonly meant the number of molecules, sites or subunits per partner or assembly. Take B1: the “stoichiometry N” value is 2.
